Several values for one entry are separate records, joined by “and”; a condition that tells them apart may be missing. Identical values can stand only once.
Legend:
[1] = target: the molecule itself; assay: cryo-EM 2D classification
cryo-EM structure = target: the molecule itself; assay: cryo-EM structure

B1: full-length mature human contactin-2 (CNTN2), residues 29-1012, wild type (natural protein, UniProt Q02246 29-1012, looked up)
chain: LGSQTTFGPVFEDQPLSVLFPEESTEEQVLLACRARASPPATYRWKMNGTEMKLEPGSRHQLVGGNLVIMNPTKAQDAGVYQCLASNPVGTVVSREAILRFGFLQEFSKEERDPVKAHEGWGVMLPCNPPAHYPGLSYRWLLNEFPNFIPTDGRHFVSQTTGNLYIARTNASDLGNYSCLATSHMDFSTKSVFSKFAQLNLAAEDTRLFAPSIKARFPAETYALVGQQVTLECFAFGNPVPRIKWRKVDGSLSPQWTTAEPTLQIPSVSFEDEGTYECEAENSKGRDTVQGRIIVQAQPEWLKVISDTEADIGSNLRWGCAAAGKPRPTVRWLRNGEPLASQNRVEVLAGDLRFSKLSLEDSGMYQCVAENKHGTIYASAELAVQALAPDFRLNPVRRLIPAARGGEILIPCQPRAAPKAVVLWSKGTEILVNSSRVTVTPDGTLIIRNISRSDEGKYTCFAENFMGKANSTGILSVRDATKITLAPSSADINLGDNLTLQCHASHDPTMDLTFTWTLDDFPIDFDKPGGHYRRTNVKETIGDLTILNAQLRHGGKYTCMAQTVVDSASKEATVLVRGPPGPPGGVVVRDIGDTTIQLSWSRGFDNHSPIAKYTLQARTPPAGKWKQVRTNPANIEGNAETAQVLGLTPWMDYEFRVIASNILGTGEPSGPSSKIRTREAAPSVAPSGLSGGGGAPGELIVNWTPMSREYQNGDGFGYLLSFRRQGSTHWQTARVPGADAQYFVYSNESVRPYTPFEVKIRSYNRRGDGPESLTALVYSAEEEPRVAPTKVWAKGVSSSEMNVTWEPVQQDMNGILLGYEIRYWKAGDKEAAADRVRTAGLDTSARVSGLHPNTKYHVTVRAYNRAGTGPASPSANATTMKPPPRRPPGNISWTFSSSSLSIKWDPVVPFRNESAVTGYKMLYQNDLHLTPTLHLTGKNWIEIPVPEDIGHALVQIRTTGPGGDGIPAEVHIVRNGGTSMMVEN
modifications: N-linked glycans at Asn76, Asn198, Asn461, Asn477, Asn498, Asn525 (densities in the cryo-EM map)
- stoichiometry N [1]: 4 and 6
- stoichiometry N (cryo-EM structure): 2
